Data published in patent publication US20240182536A1 (MURAL ONCOLOGY, published 2024).

T1: IL-18 receptors on HEK-Blue IL-18 reporter cells (UniProt Q13478 19-541; O95256 20-599, limits assumed)
T1 sequence (looked up) 1: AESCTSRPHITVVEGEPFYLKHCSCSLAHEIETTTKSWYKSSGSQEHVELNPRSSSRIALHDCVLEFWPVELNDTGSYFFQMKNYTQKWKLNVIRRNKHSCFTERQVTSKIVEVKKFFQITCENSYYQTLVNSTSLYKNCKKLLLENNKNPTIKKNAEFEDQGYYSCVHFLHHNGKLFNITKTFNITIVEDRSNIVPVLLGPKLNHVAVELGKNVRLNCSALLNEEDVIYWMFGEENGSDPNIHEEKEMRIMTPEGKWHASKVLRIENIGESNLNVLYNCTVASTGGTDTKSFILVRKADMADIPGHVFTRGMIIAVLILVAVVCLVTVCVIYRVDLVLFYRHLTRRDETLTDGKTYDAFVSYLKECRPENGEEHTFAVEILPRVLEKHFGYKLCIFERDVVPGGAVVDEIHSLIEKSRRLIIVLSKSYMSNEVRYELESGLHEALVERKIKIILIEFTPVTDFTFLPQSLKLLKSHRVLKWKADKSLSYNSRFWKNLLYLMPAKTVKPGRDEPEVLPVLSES
T1 sequence (looked up) 2: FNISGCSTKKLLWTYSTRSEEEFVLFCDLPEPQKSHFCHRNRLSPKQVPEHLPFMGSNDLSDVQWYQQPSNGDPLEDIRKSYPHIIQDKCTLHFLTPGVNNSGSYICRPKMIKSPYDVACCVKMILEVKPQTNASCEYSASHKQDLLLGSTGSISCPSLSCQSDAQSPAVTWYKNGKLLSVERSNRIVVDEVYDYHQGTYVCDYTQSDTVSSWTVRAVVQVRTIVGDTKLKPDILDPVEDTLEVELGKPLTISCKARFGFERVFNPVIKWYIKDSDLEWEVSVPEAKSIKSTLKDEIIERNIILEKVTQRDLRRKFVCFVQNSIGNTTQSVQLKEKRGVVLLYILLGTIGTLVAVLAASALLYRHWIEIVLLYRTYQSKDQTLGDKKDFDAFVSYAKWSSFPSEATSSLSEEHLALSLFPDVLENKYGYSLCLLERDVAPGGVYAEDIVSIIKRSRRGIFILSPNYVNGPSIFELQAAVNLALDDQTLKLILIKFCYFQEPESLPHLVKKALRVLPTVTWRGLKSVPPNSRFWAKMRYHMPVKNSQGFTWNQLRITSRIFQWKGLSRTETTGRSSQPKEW

T2: IL-18 binding protein (IL-18BP) (UniProt O95998 31-194)
T2 sequence (looked up): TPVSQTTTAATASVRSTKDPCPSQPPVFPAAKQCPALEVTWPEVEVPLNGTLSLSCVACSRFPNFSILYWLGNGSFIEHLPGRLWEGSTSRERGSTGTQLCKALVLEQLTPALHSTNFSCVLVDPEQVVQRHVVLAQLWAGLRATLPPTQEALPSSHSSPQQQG


Tests used:
[1] = target: T1, IL-18 receptors on HEK-Blue IL-18 …; experiment: cell-based or functional assay
[2] = target: T2, IL-18 binding protein (IL-18BP); experiment: cell-based or functional assay

Binder	Activity, No BP, DF-100000 [1]	Activity, No BP, DF-500000 [1]	Activity, No BP, DF-2500000 [1]	Activity, +100 nM BP, DF-1000002 [2]	Activity, +100 nM BP, DF-5000003 [2]	Activity, +100 nM BP, DF-25000004 [2]	Ratio (-BP/+BP), DF-1000005 [2]	Ratio (-BP/+BP), DF-5000006 [2]	Ratio (-BP/+BP), DF-25000007 [2]
IL-18 variant G3L, E6Y, D54T, T63S, N91Y, R104Q (ligand) YFLKLYSKLSVIRNLNDQVLFIDQGNRPLFEDMTDSDMRDNAPRTIFIISMYKTSQPRGMAVSISVKSEKISTLSSENKIISFKEMNPPDYIKDTKSDIIFFQQSVPGHDNKMQFESSSYEGYFLASEKERDLFKLILKKEDELGDRSIMFTVQNED	2.14	2.02	1.69	2.04	1.92	1.45	1.05	1.05	1.17
IL-18 variant G3P, E6K, D54Y, S55P, T63S, N91S, R104Q, Q154R (ligand) YFPKLKSKLSVIRNLNDQVLFIDQGNRPLFEDMTDSDMRDNAPRTIFIISMYKYPQPRGMAVSISVKSEKISTLSSENKIISFKEMNPPDSIKDTKSDIIFFQQSVPGHDNKMQFESSSYEGYFLASEKERDLFKLILKKEDELGDRSIMFTVRNED	1.49	0.94	0.36	1.51	0.81	0.39	0.99	1.16	0.93
IL-18 variant G3D, E6G, K53G, D54A, T63S, N91Y, R104Q (ligand) YFDKLGSKLSVIRNLNDQVLFIDQGNRPLFEDMTDSDMRDNAPRTIFIISMYGASQPRGMAVSISVKSEKISTLSSENKIISFKEMNPPDYIKDTKSDIIFFQQSVPGHDNKMQFESSSYEGYFLASEKERDLFKLILKKEDELGDRSIMFTVQNED	1.36	0.72	0.21	1.33	0.73	0.19	1.02	0.98	1.14
IL-18 variant G3P, E6H, N91L (ligand) YFPKLHSKLSVIRNLNDQVLFIDQGNRPLFEDMTDSDMRDNAPRTIFIISMYKDSQPRGMAVTISVKSEKISTLSSENKIISFKEMNPPDLIKDTKSDIIFFQRSVPGHDNKMQFESSSYEGYFLASEKERDLFKLILKKEDELGDRSIMFTVQNED	1.45	0.9	0.29	1.52	0.93	0.33	0.95	0.97	0.87
IL-18 variant G3Q, E6H, K53T, D54S, S55Y, N91Y, R104K (ligand) YFQKLHSKLSVIRNLNDQVLFIDQGNRPLFEDMTDSDMRDNAPRTIFIISMYTSYQPRGMAVTISVKSEKISTLSSENKIISFKEMNPPDYIKDTKSDIIFFQKSVPGHDNKMQFESSSYEGYFLASEKERDLFKLILKKEDELGDRSIMFTVQNED	1.52	0.95	0.31	1.48	0.88	0.29	1.03	1.08	1.08
IL-18 variant G3P, E6K, D54R, S55P, T63A, N91V (ligand) YFPKLKSKLSVIRNLNDQVLFIDQGNRPLFEDMTDSDMRDNAPRTIFIISMYKRPQPRGMAVAISVKSEKISTLSSENKIISFKEMNPPDVIKDTKSDIIFFQRSVPGHDNKMQFESSSYEGYFLASEKERDLFKLILKKEDELGDRSIMFTVQNED	1.31	0.67	0.22	1.34	0.73	0.28	0.98	0.92	0.79
IL-18 variant G3P, E6K, D54Y, S55P, T63S, N91S, R104Q (ligand) YFPKLKSKLSVIRNLNDQVLFIDQGNRPLFEDMTDSDMRDNAPRTIFIISMYKYPQPRGMAVSISVKSEKISTLSSENKIISFKEMNPPDSIKDTKSDIIFFQQSVPGHDNKMQFESSSYEGYFLASEKERDLFKLILKKEDELGDRSIMFTVQNED	1.75	1.32	0.72	1.8	1.35	0.77	0.97	0.97	0.93
IL-18 variant G3L, E6S, D54T, T63S, N91Y, R104Q (ligand) YFLKLSSKLSVIRNLNDQVLFIDQGNRPLFEDMTDSDMRDNAPRTIFIISMYKTSQPRGMAVSISVKSEKISTLSSENKIISFKEMNPPDYIKDTKSDIIFFQQSVPGHDNKMQFESSSYEGYFLASEKERDLFKLILKKEDELGDRSIMFTVQNED	2.11	1.98	1.73	2.06	1.95	1.44	1.02	1.02	1.2
IL-18 variant G3Q, E6Q, K53T, D54W, S55F, N91Y (ligand) YFQKLQSKLSVIRNLNDQVLFIDQGNRPLFEDMTDSDMRDNAPRTIFIISMYTWFQPRGMAVTISVKSEKISTLSSENKIISFKEMNPPDYIKDTKSDIIFFQRSVPGHDNKMQFESSSYEGYFLASEKERDLFKLILKKEDELGDRSIMFTVQNED	1.23	0.54	0.17	1.14	0.45	0.14	1.08	1.21	1.2
IL-18 variant G3P, E6H, D54A, S55P, Q56K, T63S, N91M (ligand) YFPKLHSKLSVIRNLNDQVLFIDQGNRPLFEDMTDSDMRDNAPRTIFIISMYKAPKPRGMAVSISVKSEKISTLSSENKIISFKEMNPPDMIKDTKSDIIFFQRSVPGHDNKMQFESSSYEGYFLASEKERDLFKLILKKEDELGDRSIMFTVQNED	1.2	0.63	0.17	1.24	0.61	0.19	0.97	1.03	0.9
IL-18 variant G3P, E6K, D54Y, S55P, Q56H, T63S, N91S, R104Q (ligand) YFPKLKSKLSVIRNLNDQVLFIDQGNRPLFEDMTDSDMRDNAPRTIFIISMYKYPHPRGMAVSISVKSEKISTLSSENKIISFKEMNPPDSIKDTKSDIIFFQQSVPGHDNKMQFESSSYEGYFLASEKERDLFKLILKKEDELGDRSIMFTVQNED	1.63	1.1	0.53	1.69	1.08	0.54	0.96	1.02	0.98
